# Experiment: soluble on expression in E. coli; label from the status in PepcDB or PDB records
row,Sequence,soluble on expression in E. coli
1,MAHHHHHHMFGTTRVWRNTFLTKSVATPPISVIRTGPRWWADPERMVRQKLMYFTLGVDQLPLRRTAVIQKDLHRFHMCKPPPRIGDTTGYKRSRAAQLTTWYRRIQYQEYHLQHLFTRHVWGLVRAYPGNTTKIQGKADDGYVGYDSVPYHRYNRTPLPFPAREIYGRRE,not soluble
2,NEKITKKDALELFSLPIHAVGRIADEIRKVKCGDLVTFVNDTNINYTNICLSKCRFCAFYAREKGYVLSHEEILRKVGYAVKMGATQIMLQGGMNPDLGLEWFEELFRKIKARFSSVHIHSLSPPEIVFLAKLERSSIREVLDRLKAAGLDSLPGGGAEILVDSVRRKISPNKCSSDEWLRVMETAHSLNMPTTATMMFGHVESDGDIVEHLIKIRELQEKTGGFTAFIPWTFQPGNTELYAEIKRPVSPLRYLQVLAISRIVLNNFRNIQASWLTQGFEIATLSLFFGANDFGGTMLEENVVRATGKDFRPAKIEEIVKAVKAVGRPVALR,soluble
3,SYTEVRELVNFVCRYLFGHIPRRPVGIFGAELGNYLVSHFSSTWDVHHPKNGEMKRMINTTTSLCFASSAEEAGVPPSDVLRLLPTNMIIFANPGHVFVRLSENGIETPIWIGDVNCDENYQSVPEYVVRTAAIRAEPCSNLGAAGKSVLVGKKPLLTNDKAALEMVNTMYSPLAREKCDDINANLSHLREMYPFRFVYKPSSAQTFSGVEFSQTRFGSSKSRPDLQTMDVIKYLSSQQVSSSSSPSFTYSSINDQMRYSPRF,soluble
4,MGSDKIHHHHHHNDPNIQIATQDSLSTLNYRINQLLKNGTVTSSSKKNPEVKTDTDKTANDSTSDSRVWSKPEANVYIDIHDNMQLRSATIDAMNAWNRTGAFTFKQIDNKKNAQIIVNVVDDSGTDAAGETATTYNPATGHLLKATVHLNRYYLQNEWYGYSNNRIINTAEHELGHAIGLNHTNSVSVMYPKGSIYTIQPQDIKNLKKIYHEN,not soluble
5,MIRQVIQRISNPEASIESLQERRFWLQCERAYTWQPIYQTCGRLMAVELLTVVTHPLNPSQRLPPDRYFTEITVSHRMEVVKEQIDLLAQKADFFIEHGLLASVNIDGPTLIALRQQPKILRQIERLPWLRFELVEHIRLPKDSTFASMCEFGPLWLDDFGTGMANFSALSEVRYDYIKIARELFVMLRQSPEGRTLFSQLLHLMNRYCRGVIVEGVETPEEWRDVQNSPAFAAQGWFLSRPAPIETLNTAVLAL,not soluble
6,MQVLHVCSEMFPLLKTGGLADVIGALPAAQIADGVDARVLLPAFPDIRRGVTDAQVVSRRDTFAGHITLLFGHYNGVGIYLIDAPHLYDRPGSPYHDTNLFAYTDNVLRFALLGWVGAEMASGLDPFWRPDVVHAHDWHAGLAPAYLAARGRPAKSVFTVHNLAYQGMFYAHHMNDIQLPWSFFNIHGLEFNGQISFLKAGLYYADHITAVSPTYAREITEPQFAYGMEGLLQQRHREGRLSGVLNGVDEKIWSPETDLLLASRYTRDTLEDKAENKRQLQIAMGLKVDDKVPLFAVVSRLTSQKGLDLVLEALPGLLEQGGQLALLGAGDPVLQEGFLAAAAEYPGQVGVQIGYHEAFSHRIMGGADVILVPSRFEPCGLTQLYGLKYGTLPLVRRTGGLADTVSDCSLENLADGVASGFVFEDSNAWSLLRAIRRAFVLWSRPSLWRFVQRQAMAMDFSWQVAAKSYRELYYRLK,not soluble
7,MAAAENRVQQVKGILTMAINNGTLWQVIDMRNNERLNCVDMAVRAGSETCAMLITKVAREYAKHRPRSEVEKKFDSMPTTEEDVTISLGPKTADTFDDNYVKELVRQSESASGHAVATKKLSREKISNSLAKGNVAAVQGREYLKMVKRSSSAHSRLMSQRTFSVESGSIDSSEPSTPQLTSPPADHGVFSSVGEKIRNIFGKKPPLHTKSLSVVQTDRIAAPAVRSSSISNKPLSYQTSGNSNEEDHLRLPQHSSSSESPPSEGPSNSGLFRWSSKDKPMTSTVSTANGVRLPPLSLRRRTNSDPKNRDFTSLGGDE,not soluble
8,MGSDKIHHHHHHMKVTLIGIDLAKNVFQVCGINQAGKSVFNRALKRSQLMAFLFKYPDSIIAMEACSGSNYWGRELLTKGFEVRLIPPQHVKPFVKGNKNDRNDAFAICEAALRPNLTFVQPRTLEQTDMILAHRIRERNVENRTSLINQIRGLLNEYGVVIAQGKERLKLAIPELLENADSGLTEIARQHFQALLEEWKQVDRTIKNLEKNIKSQAKLNHQTNRLMGIKGVAEITATAAVAFAGNGAQYHNGRHFAANLGLVPREYSSGGKQKLGKITKRGNNYLRRLLVQGAWSIIRYVGNSTDRMSVWAKKLIERRGKHKAAVAVANKLARIIWSMLYNQTEYRAN,not soluble
9,MIRHRFSAEDFHRMAEAGILGEDDRVELIRGEVVELSPVGKRHMAALKRLMNALFPLQQAKKALLQVQDPLRLFPDTEPQPDLALLAYRDDFYRERVPEAKDALLVVEVAETSLDHDLQVKLPLYAQAGIPEVWVVDLVREKVHVFRKPQGEGYGEAQALEDGELSVLGLKVPVKEVLP,soluble
10,KMNRKPTTKIISICLKKATGHVAEALGVEKATEVIVIERLRSLDNMPAIFEIDYFRKEDQFMLDLELTDTSLLDILRQYRGVIASYFDNIIEIALADEKLAEALAISEEEALVKINQTVVDNDNQILYFNEQYILSESYKVAIRSYNK,soluble
11,MGSDKIHHHHHHMDLFSAMRIFIRVVERGSMSAAARDLGIGQPAVSERIEKLEAHLGTRLLRRNTRNMSLTQSGNVFYERSKTAVQAAEHALSVNEENQGLQGKIRIAAPYSAGESLLMPALLQLQNEHPELQVDVIFNDRVINPVTEGVDLSLRLGDVSEGFFVARPLGTVRRVLLASPALLAKMGHPDTPDALTDYPFAAVSGVFASNRIQLVASEDQLINVPVNIQFQSTHWRSVLSWLLAGHAIGVLQSPVCRKEIADGALIPLLSHYPIPPFSAWLLHPPAGMMSYETRICASLLEGYIRDLLLEPAG,not soluble
12,MSLSNYISIKGAKVNNLKNIDVNIPRNKLVVITGLSGSGKSSLAFDTLYAEGQRRYVESLSSYARQFLGRMSKPECDFIKGIPPAIAIEQKVNSRNPRSTVGTSTEIYEYLRLLYARVGKTYSPISGQLVKKHSIEDIVNCMLSFPKGTKYTVLTPMMPREGRTLLQQLEMDLKQGFTRIEVNREIVRIEDFLQQTAAEDKKQNIYLLVDRMTADDSKDSISRLTDSAETAMYEGDGNCLLRFYSADGSTQLFSFSTKFETDGIKFEEPNDQMFSFNSPLGACPECEGFGKVIGIDEHLVIPNRALSVYDGAVLCWRGEKMGEWLQEFIHEAPAHDFPIFAPYYELTQEQKDYLWHGPRNKACIDSFFKMLEENQYKIQYRVMLARYRGKTICPVCHGTRLKKEAGYVKVGGKSISQLVDLPIHDLKEFFRTLELDAHDTAIAKRILTEITNRINFLMDVGLGYLTLNRLSNSLSGGESQRINLATSLGSSLVGSLYILDEPSIGLHSRDTDRLIKVLRQLQELGNTVVVVEHDEEIIRAADYIIDIGPQAGRLGGQIVYQGNMNDLQRNSNSYTVRYLLGEEGHHHHHH,not soluble
13,MNISVFDLFSIGIGPSSSHTVGPMLAANAFLQLLEQKNLFDKTQRVKVELYGSLALTGKGHGTDKAILNGLENKAPETVDPASMIPRMHEILDSNLLNLAGKKEIPFHEATDFLFLQKELLPKHSNGMRFSAFDGNANLLIEQVYYSIGGGFITTEEDFDK,not soluble
14,MSLKVPGIRNYDGPAGGWGALKATATAVREQMDTLKAPLTLMRTNQPDGFDCPGCAWPDKEHKSTFQFCENGAKAVTWEATNKRVTPAFFAQHPVTSLLQRSDYELEDLGRLTEPLVYDRASDTFKPVAWQDAFARIGEILRSLQPEQVEFYTSGRASNEAAYLYQLFAREYGCNNFPDCSNMCHEPTSVGLPRSIGIGKGTVSLEDFDLCELIISIGHNPGTNHPRMMGTLHEASRRKVPIMVFNPLRERALERFADPQNMVEMATYGSTRIASSYFQVKAGGDAAAIKGIMKALLALEDSLGQVLDQAFIAEHTQGFEALAADLHATAWADIEQASGLHQADLEMVAAAYAKSNATIVTYGMGITQHNEGTANVRLICDLLMLRGNLGKPGAGICPLRGHSNVQGNRTVGITEKPSPAFLDKLQQTFGFTPPAHHGHDAVQAMQAMIAGSAKALLCLGGNFAVALPDPGQCFPAMGKLDLSVHIATKLNRSHLLVARETFLFPCLGRTELDMQDGLRQAITVEDSMSMVHASAGKLAPASEFLLSEPAIVAGMARATLPGSRVPWLELVADYDKIRDLIEQTVPGFDDYNARIRVPGGFRMPLAAAERQWLTPSGKAEFFVFPGLHEDKEVDGADVLRLITLRSHDQYNTTIYALDDRYRGVFGRRDVLFISPADLAARGLAHGDLVDIETVIGGRRLRYEKITAIEYKIANGTVGAYYPEANRLVPLDYLDVDSGTPSYKSVPVRVLRSSPAEGHHHHHH,soluble
15,MAHHHHHHMFNEAAVPFIQTARDNGLLFGGSDAPAMIDYTSEHGKSYHVRGSIFEVAPHFEVLNGIGYGAYGVVCAAVDLRLVASSVYYNEAMRTIEEEGRIVTRQRRGHDAPVYFRTRAVLDEAGRGGPVRVPHLYSEPFKRRTLARGEVSPFVAIKKVTKVFDDLVDGRRILREIKLLRYLQGHPNIVRLMEVGRPPAPTGASSSAAFDDIYLVTDLMDTDLGALLRSSQEIAMDQLRFIAYQLMKVLVYVHSSGVIHRDLKPGNILLNGNCDMKLCDFGLSRGGVPAWPHERTLTAVATAAESSAKELEDWGLFCWSSSAARGASSAPHAAKQPPLYSLTDYVVTRYYRAPELLIMGRYNHAIDMWSAGCILAEMVLRRPLFTGANYLSQLALILETPGLRGVPQTPEEAAALFEGGEEGKHFINDILFHKTARRRDPLTLSDQVHSQVLFHSTLFGFKVDVPISLGILIAKLLSFDPRKRPTALEALRDPFFWPLYDSRDEILRCPASDPSVAREQIDDIAAYQKAHPCVVVDESPVFTWEFDHRITSAQALRGLFEEECQISRDVQQQLERQQRLRSSPVVKCSERRTLERSLFSGASDGSSGGDGAH,not soluble
16,MRVIEVKNLTFSYDGKHNVLEDVSFYVEKGDFLGIVGPNGAGKSTLLKLILGFLKPKSGEIYLFGKKIEEFKDWKRVGYVPQRLSVEHAFPGTVKELLSSVCEDKKEIDYLVEFLKLKNIVNKQFTKLSGGQQQRVLLAMALSYNPELILLDEPTVGLDVHAINHFMSILLDLNMNHKKSIVMISHDIGTLLKHASKILCLNKKVCYFGEPEGAIEYIEEAFGLRGFLHGVS,soluble
17,MPDHGPAFTVKIAETEAELHAAQRLRYDVFVRELGGSGALVDHQAGLERDRFDPFFDHMLCINNRSGQVVGVYRLLRDEQAQSAGQFYSEDEYDLGVLKRSGRRLLELGRSCVHPDYRGGMAMYHLWNGLADYVEQHGIEVLFGVASFHGTDVEALAQPLSMLYHNHLAPEDLRVRTQPAHYVDMNRITPEALDRRRAMLEVPSLIKAYLRLGGFVGDGAYIDHAFNTTDVCLILDTARMNERQRRIYGGG,not soluble
18,SQELTLSPGPAKLTPTLDPTHRMELILSTSPAELTLDPACQPKLPLDSTCQPEMTFNPGPTELTLDPEHQPEETPAPSLAELTLEPVHRRPELLDACADLINDQWPRSRTSRLHSLGQSSDAFPLCLMLLSPHPTLEAAPVVVGHARLSRVLNQPQSLLVETVVVARALRGRGFGRRLMEGLEVFARARGFRKLHLTTHDQVHFYTHLGYQLGEPVQGLVFTSRRLPATLLNAFPTAPSPRPPRKAPNLTAQAAPRGPKGPPLPPPPPLPECLTISPPVPSGPPSKSLLETQYQNVRGRPIFWMEKDI,soluble
